Measured values as given in patent US20040039175.

Test system: HIV-AB-KOX (synthetic construct)
Assay: cell_activity
Conditions: LTR-luciferase, Jurkat, Tat+PMA+PHA

AGCTTTCTACAAGGGACTTTCCGCTGGGGACTTTCCAGGGAGGCGTGGCCTGGGCGGGACTGGGGAGTGGCGTCCCTCAGATGCTGCATATAAGCAGCTGCTTTTTGCCTGTACTGGGTCTCTCTGGTTAGACCAGATCTGAGCCTGGGAGCTCTCTGGCTAACTAGGGAACCC (double strand) [HIV-1 LTR reporter]
activity: 96 % inhibition
